Experimental data taken from patent publication US10010626B2, “Molecular constructs with targeting and effector moieties” (Immunwork Inc., priority 2015, dated 2018).

Columns and labels:
human TNF-α = human TNF-α (Homo sapiens, UniProt P01375); assay: ELISA analysis of purified scFv of adalimumab; assay type: binding; conditions: compared with Expi-293F-produced scFv of adalimumab
Method: The expression plasmid was then transformed into Pichia pastoris by electroporation. To screen for high yield clones, ELISA was performed to measure the expression levels of scFv of adalimumab. Out of 480 transformants, five were selected for further protein induction and examination by SDS-PAGE. The clone scFv_1-A2 was selected for subsequent large-scale fermentation.
The high-yield clone scFv_1-A2 was inoculated in 100 mL of buffered glycerol-complex medium (BMGY, containing 1% yeast extract, 2% peptone, 100 mM K3PO4, 1.34 YNB, 0.4 mg/L biotin and 1% glycerol, pH 6.0) and cultured at 30° C., 200 rpm for 24 hours. On the next day, the culture was changed to a fermentation condition maintaining at 30° C., 30% of dissolved oxygen and pH 6.0. After being fermented for 24 hours, nitrogen source (YE, peptone) and methanol (0.5%, v/v) was added to induce protein expression. The culture supernatant was harvested for protein purification.

CD20 = molecular target: T1, CD20 (Homo sapiens, UniProt P11836); assay: Apoptosis by anti-CD20 Fab in a 4-arm PEG linker; assay type: cell-based; conditions: PEG arm of about 1,000-1,200 daltons (about 25-30 ethylene glycol units)
T1 sequence (P11836 1-297): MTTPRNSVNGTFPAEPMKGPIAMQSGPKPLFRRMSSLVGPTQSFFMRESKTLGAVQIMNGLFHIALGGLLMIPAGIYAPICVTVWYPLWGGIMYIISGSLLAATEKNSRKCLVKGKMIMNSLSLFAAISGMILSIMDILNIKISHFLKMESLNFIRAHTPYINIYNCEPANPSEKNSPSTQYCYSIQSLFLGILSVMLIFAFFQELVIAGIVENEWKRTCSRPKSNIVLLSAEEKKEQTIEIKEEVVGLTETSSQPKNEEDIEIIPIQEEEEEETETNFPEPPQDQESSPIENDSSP

Sequence of human TNF-α (P01375 77-233 limits assumed): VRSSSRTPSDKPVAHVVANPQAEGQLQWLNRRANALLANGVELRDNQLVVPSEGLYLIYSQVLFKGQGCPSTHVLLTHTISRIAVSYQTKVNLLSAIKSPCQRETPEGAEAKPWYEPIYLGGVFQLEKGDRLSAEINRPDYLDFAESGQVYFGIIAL

yeast-produced scFv of adalimumab: scFv of adalimumab produced by Pichia pastoris clone scFv_1-A2
binding to human TNF-α (ELISA) (human TNF-α): bound to human TNF-α equally well as Expi-293F-produced scFv of adalimumab

anti-CD20 (rituximab) Fab in a 4-arm PEG linker: anti-CD20 (rituximab) Fab in a 4-arm PEG linker, PEG arm of about 1,000-1,200 daltons
causing apoptosis (CD20): effective in causing apoptosis
